Test in all cases: co-IP
Experiment [1] addresses AMPA receptor subunit GluA2 (rat (endogenous in adult Sprague-Dawley rat brain)) (UniProt P19491).
Experiment [2] shares this target. The source holds these as a separate data set.
For experiment [3], the target named is GluA2/3+GluA4 (rat (endogenous in adult Sprague-Dawley rat brain)).
Experiment [4] has as its target AMPA receptor subunit GluA1 (rat (endogenous in adult Sprague-Dawley rat brain)) (UniProt P19490).
Experiment [5] has the same target. This is another data set of the same source.
The target is the same in experiment [6]. The source holds these as a separate data set.
The target is the same in experiment [7]. The source holds these as a separate data set.

Where two headings read alike, the source gives them in different places.

Sequence of AMPA receptor subunit GluA2 (P19491 22-883): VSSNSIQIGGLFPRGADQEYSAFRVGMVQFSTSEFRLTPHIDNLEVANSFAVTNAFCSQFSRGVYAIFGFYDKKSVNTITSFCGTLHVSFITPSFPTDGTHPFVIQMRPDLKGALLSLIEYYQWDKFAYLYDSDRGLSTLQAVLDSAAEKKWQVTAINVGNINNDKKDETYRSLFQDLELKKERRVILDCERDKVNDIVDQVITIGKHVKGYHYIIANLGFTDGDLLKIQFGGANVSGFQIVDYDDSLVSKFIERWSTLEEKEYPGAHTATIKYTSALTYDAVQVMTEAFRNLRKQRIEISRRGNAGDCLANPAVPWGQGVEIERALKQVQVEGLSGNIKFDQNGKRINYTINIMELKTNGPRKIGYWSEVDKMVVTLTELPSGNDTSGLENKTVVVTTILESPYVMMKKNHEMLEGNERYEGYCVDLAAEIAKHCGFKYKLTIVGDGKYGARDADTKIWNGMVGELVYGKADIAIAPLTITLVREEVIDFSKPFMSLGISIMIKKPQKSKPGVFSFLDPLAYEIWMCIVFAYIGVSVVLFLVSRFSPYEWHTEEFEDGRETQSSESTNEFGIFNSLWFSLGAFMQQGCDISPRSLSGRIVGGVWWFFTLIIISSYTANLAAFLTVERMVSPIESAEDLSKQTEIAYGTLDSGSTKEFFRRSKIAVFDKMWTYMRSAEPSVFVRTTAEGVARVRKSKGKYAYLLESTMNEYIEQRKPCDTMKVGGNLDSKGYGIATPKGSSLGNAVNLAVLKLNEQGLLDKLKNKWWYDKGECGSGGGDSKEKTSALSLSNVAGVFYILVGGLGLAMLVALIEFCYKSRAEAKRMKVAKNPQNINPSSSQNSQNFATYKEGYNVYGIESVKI
Sequence of AMPA receptor subunit GluA1 (rat (endogenous in adult Sprague-Dawley rat brain)) (P19490 19-907): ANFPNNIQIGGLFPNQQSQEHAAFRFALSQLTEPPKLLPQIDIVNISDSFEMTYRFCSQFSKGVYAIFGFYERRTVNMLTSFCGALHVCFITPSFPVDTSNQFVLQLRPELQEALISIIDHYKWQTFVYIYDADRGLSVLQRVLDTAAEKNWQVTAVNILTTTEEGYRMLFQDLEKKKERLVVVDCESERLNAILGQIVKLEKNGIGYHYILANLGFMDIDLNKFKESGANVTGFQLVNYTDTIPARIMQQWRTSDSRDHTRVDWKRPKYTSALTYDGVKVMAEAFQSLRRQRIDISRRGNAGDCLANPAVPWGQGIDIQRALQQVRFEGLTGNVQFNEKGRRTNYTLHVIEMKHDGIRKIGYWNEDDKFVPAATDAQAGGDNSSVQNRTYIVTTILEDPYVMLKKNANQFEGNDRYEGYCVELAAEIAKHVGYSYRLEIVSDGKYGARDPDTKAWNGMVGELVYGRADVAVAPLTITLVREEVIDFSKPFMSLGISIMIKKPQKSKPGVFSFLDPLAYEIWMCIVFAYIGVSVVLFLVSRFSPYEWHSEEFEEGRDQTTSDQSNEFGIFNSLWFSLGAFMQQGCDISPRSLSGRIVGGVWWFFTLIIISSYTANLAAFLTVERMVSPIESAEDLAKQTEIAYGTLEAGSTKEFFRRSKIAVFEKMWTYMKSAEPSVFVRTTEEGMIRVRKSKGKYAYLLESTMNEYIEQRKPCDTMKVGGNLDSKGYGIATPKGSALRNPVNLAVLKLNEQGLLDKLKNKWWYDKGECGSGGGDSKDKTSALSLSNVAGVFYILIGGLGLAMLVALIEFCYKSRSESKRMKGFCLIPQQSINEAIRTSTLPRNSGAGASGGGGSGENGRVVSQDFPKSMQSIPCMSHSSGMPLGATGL
Sequence of AMPA receptor subunit GluA1 (P19490 19-907): as above
Sequence of AMPA receptor subunit GluA2 (rat (endogenous in adult Sprague-Dawley rat brain)) (P19491 22-883): as the sequence (P19491 22-883) above

On to “AMPA receptor subunit GluA1 (from UniProt P19490 19-907)”, for which the percent of GluA1 complexed with GluA2 (the paper's estimate) in experiment [1] and in experiment [2] was above 80% in each case. Besides, in experiment [3], the percent of GluA1 removed by IP with GluA2/3+GluA4 antibodies is 93%.

For the substance “AMPA receptor subunit GluA2 (from UniProt P19491 22-883)”, the percent of GluA2 left in the unbound fraction after IP with GluA1 antibody in experiment [4] was determined as 53%; in experiment [5], 62%; in experiment [6] it was 55%; in experiment [7], 65%.

Values taken from PMC3005033.
